Assay [1] deals with NC/Nga mice modeling atopic dermatitis. Kind of assay: Haptene (DNFB) treatment of mice modeling atopic dermatitis, observation of skin inflammation. The class given is in vivo, mouse. The conditions noted are these: haptene (0.1% DNFB, once a week, 4 weeks) applied; lactoferrin 1 μg/ml in drinking water; compared to haptene-treated mice not given lactoferrin. As to the method:
(§1) Six-week-old male mice (NC/Nga mice) modeling atopic dermatitis were obtained (NC/Nga slc, Sankyo Labo Service Corporation) and raised under conventional conditions. […] In view of the above, a 0.1% DNFB solution (haptene) was applied to the skin of the mice on both ears as well as the right and left sides of the back once a week for a total of 4 weeks.
(§2) To relieve inflammation caused by atopic dermatitis, lactoferrin was dissolved in drinking water at 1 μg/ml and administered.
(§3) Three mice were tested under each of the following experimental conditions: (1) haptene (−)/lactoferrin (−), (2) haptene (−)/lactoferrin (+), (3) haptene (+)/lactoferrin (−), and (4) haptene (+)/lactoferrin (+).
When raised with haptene treatment in a conventional environment, the mice (NC/Nga mice) modeling atopic dermatitis used in this study developed a macroscopically noticeable dermatitis very similar to atopic dermatitis after 4 weeks of haptene treatment. In this study, the mice were fed with drinking water mixed with lactoferrin, a substance shown to be effective on atopic dermatitis (a protein with a molecular weight of 80,000 found in saliva and blood and bonding with Fe ions).

The subject of assay [2] is skin tissues of NC/Nga mice modeling atopic dermatitis. The experiment in a line: Western blotting of protein expression in skin tissues of mice modeling atopic dermatitis. The assay is classed as in vivo, mouse. As to the method:
as §1, §2, §3
Skin tissues were cut out from mice treated with haptene/lactoferrin for 4 weeks and the tissue strips were cut into small pieces with a knife, after which the tissue pieces were transferred into a centrifugal tube whose tare weight had been measured beforehand, to measure the tissue weight. Different buffers were added by different amounts, such as tissue weight×0.85 mg Urea, tissue weight×0.1 μl 1.5% SDS, tissue weight×0.1 μl 8.5% Triton X-100, and tissue weight×0.05 μl 2-ME, and homogenized using a HG30 homogenizer (Hitachi, Ltd.). […] Protein content was quantified using the dot blotting method.
SDS-PAGE was performed with a Laemmli Tris-Glycin system using a Western blotting sample. […] If HRP labeled anti-mouse IgG (Amersham Bioscience, Inc.) (1:1000 dilution), HRP labeled anti-rabbit IgG (Amersham Bioscience, Inc.) (1:1000 dilution), HRP labeled anti-rat IgG (Amersham Bioscience, Inc.) (1:1000 dilution) or HRP labeled anti-goat IgG (Santa Cruz Biotechnology, Inc.) (1:1000 dilution) was used as the secondary antibody, an enhanced chemiluminescence (ECL) kit (Amersham Bioscience, Inc.) was used to implement detection by means of fluorescence color development. […]
A general note: In western blotting, separated proteins are transferred to a membrane and probed.

These results are taken from patent US20090263792A1, “ATOPIC DERMATITIS MARKER AND TECHNIQUE OF USING THE SAME” (FANCL CORPORATION, priority 2005, published 2009).

B1: lactoferrin (protein, UniProt P02788 20-710, looked up)
Lactotransferrin: GRRRSVQWCAVSQPEATKCFQWQRNMRKVRGPPVSCIKRDSPIQCIQAIAENRADAVTLDGGFIYEAGLAPYKLRPVAAEVYGTERQPRTHYYAVAVVKKGGSFQLNELQGLKSCHTGLRRTAGWNVPIGTLRPFLNWTGPPEPIEAAVARFFSASCVPGADKGQFPNLCRLCAGTGENKCAFSSQEPYFSYSGAFKCLRDGAGDVAFIRESTVFEDLSDEAERDEYELLCPDNTRKPVDKFKDCHLARVPSHAVVARSVNGKEDAIWNLLRQAQEKFGKDKSPKFQLFGSPSGQKDLLFKDSAIGFSRVPPRIDSGLYLGSGYFTAIQNLRKSEEEVAARRARVVWCAVGEQELRKCNQWSGLSEGSVTCSSASTTEDCIALVLKGEADAMSLDGGYVYTAGKCGLVPVLAENYKSQQSSDPDPNCVDRPVEGYLAVAVVRRSDTSLTWNSVKGKKSCHTAVDRTAGWNIPMGLLFNQTGSCKFDEYFSQSCAPGSDPRSNLCALCIGDEQGENKCVPNSNERYYGYTGAFRCLAENAGDVAFVKDVTVLQNTDGNNNEAWAKDLKLADFALLCLDGKRKPVTEARSCHLAMAPNHAVVSRMDKVERLKQVLLHQQAKFGRNGSDCPDKFCLFQSETKNLLFNDNTECLARLHGKTTYEKYLGPQYVAGITNLKKCSTSPLLEACEFLRK
notes: a protein with a molecular weight of 80,000 found in saliva and blood and bonding with Fe ions
Consider B1, for which the “inflammation on the back (skin condition, FIG. 1)” value in assay [1] is reported as “less inflammation”. Also, the “amount of expression of Annexin II, Enolase 1 and PARK7 (all other than FABP-4) (FIG. 5)” value in assay [2] (haptene-treated mice also given lactoferrin, to a level close to non-haptene-treated control mice) is listed as “recovered”. The “amounts of expression of Galectin-1, -4, -7 and -8 (FIG. 3)” value in assay [2] (haptene-treated mice also given lactoferrin, to levels close to non-haptene-treated control mice) is given as “recovered”. Moreover, in assay [2] (haptene-treated mice, lactoferrin administration), the “Moesin, Ezrin and Radixin severed types of low molecular weight (50-kDa), increased by haptene treatment (FIG. 4)” value is recorded as “did not decrease”.
